Data published in patent US20190233498A1 (H LUNDBECK A S, published 2019).

T1: human VIP (human)
T1 construct: also called Vasoactive Intestinal Peptide
T1 peptide: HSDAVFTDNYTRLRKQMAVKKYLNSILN

T2: human PACAP27 (human, C-terminal leucine is amidated; 125I-labelled in Example 10)
T2 peptide: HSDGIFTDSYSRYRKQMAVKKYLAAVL

T3: human PACAP38 (human, not fully specified; C-terminal lysine is amidated; N-terminal or C-terminal biotin in the HTRF and PC-12 cell binding assays)
T3 construct: synthetic peptide, bought; also called huPACAP (1-38)
T3 peptide: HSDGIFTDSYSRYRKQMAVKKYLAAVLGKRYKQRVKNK


What was measured:
human VIP = target: T1, human VIP; assay: SPR, Ab immobilised
Experimental: [The procedure below names another target; the source says it served here with some conditions changed.] (§1) Binding affinities of monoclonal antibodies for human PACAP were estimated using SPR on the PROTEON™ XPR36 (Bio-Rad, Hercules, Calif.). Antibody was immobilized to the surface of general amine coupling (“GLC” or “GLM”) Chips (Bio-Rad, Hercules, Calif.). A dilution series of human PACAP38 (SEQ ID NO: 1241) prepared in 1×PBST Buffer (4.3 mM Na Phosphate, 1.4 mM K Phosphate, 135 mM NaCl, 2.7 mM KCl 0.05% Polysorbate-20) purchased from Teknova (Cat# P1192, Teknova, Hollister, Calif.) and supplemented with 0.25 M arginine (from J.T. BAKER®), 0.2 mg/ml BSA (Jackson Immuno Research Labs, West Grove, Pa.), and 0.005% sodium azide (VWR International, Radnor, Pa.) with the pH adjusted to 7 was used to query the antibodies. Antigen (ranging from 1.23 nM to 100 nM) was typically run sequentially with association times of 2-4 minutes and dissociation times of 3-120 minutes grouped with the PROTEON™ Manager Software (v3.1.0.6 (Bio-Rad, Hercules, Calif.)) and fitted using a 1:1 Langmuir binding model. Surfaces were regenerated between analyte queries using 0.85% Phosphoric Acid.

human PACAP27 [1] = target: T2, human PACAP27; assay: SPR, Ab immobilised
Experimental: [The procedure below names another target; the source says it served here with some conditions changed.] as §1

human PACAP38 [2] = target: T3, human PACAP38; assay: SPR, Ab immobilised
Experimental: as §1

human PACAP38 [3] = target: T3, human PACAP38; assay: inhibition of 30 nM biotin-PACAP38 binding to PC-12 cells, TRF
Experimental: (§2) To identify antibodies that block PACAP38 binding to PAC1-R-expressing cells, adherent PC-12 cells (ATCC, Manassas, Va.) expressing PAC1-R were used in a Europium-based PAC1-R expressing cells binding assay.
(§3) Antibody solutions were incubated with N-terminal biotinylated PACAP38 at 10× the final concentration (100 nM or 30 nM) for 1 hr, then added to PC-12 cells that were plated 24 hrs. prior in black clear bottom 96 well plates (COSTAR™, Corning Incorporated, Corning, N.Y.) and further incubated for 1 hr at room temperature. After three washes, the cells were incubated with 20 μl Europium-labeled streptavidin (PerkinElmer, Waltham, Mass.) for 1 hr at room temperature. Cells were washed three times, then 20 μl DELFIA® Enhancement solution (PerkinElmer, Waltham, Mass.) was added to each well and incubated for 15 minutes with gentle shaking. Plates were read (Time Resolved Fluorescence (“TRF”)) on SPECTRAMAX® (Molecular Devices, Sunnyvale, Calif.) plate reader.
(§4) FIGS. 14A-14BB are representative of the inhibition curves obtained by this method (results are shown for Ab1, Ab2, Ab3, Ab4, Ab5, Ab6, Ab7, Ab8, Ab9, Ab10, Ab11, Ab12, Ab13, Ab14, Ab15, Ab16, Ab17, Ab18, Ab19, Ab1.H, Ab10.H, Ab22, Ab23, Ab3.H, Ab4.H, Ab5.H, Ab9.H, and Ab12.H, respectively) wherein the PAC1-R expressing cells were PC-12 cells.

human PACAP27 [4] = target: T2, human PACAP27; assay: cell-based or functional assay
human PACAP38 [5] = target: T3, human PACAP38; assay: cell-based or functional assay
human PACAP38 [6] = target: T3, human PACAP38; assay: cell-based or functional assay
human PACAP38 [7] = target: T3, human PACAP38; assay: cell-based or functional assay
human PACAP38 [8] = target: T3, human PACAP38; assay: HTRF binding, biotin-PACAP38
Experimental: In parallel, 10 μl of an antibody dilution series (highest final concentration of 100 nM) were incubated with 10 μl of N-terminal or C-terminal biotinylated PACAP38 (35 nM final) alone, or in combination with either PACAP27 (350 nM final) or VIP (350 nM final), i.e., 10× PACAP27 or 10×VIP, respectively, in a HTRF plate. 20 μl of Eu³⁺ cryptate labeled anti-hu Fc donor and 20 μl of d2-labeled streptavidin acceptor were added to each well and incubated for 1 hour at room temperature. Fluorescence was measured at 620 and 665 nm with a delay of 300 μsec.
EC₅₀ values, i.e. the concentration of an antibody that yields a response halfway between the baseline and the maximum value within a specified time period, were computed for each antibody based upon their binding curves and are shown in Table 1 below. […] A humanized form of antibody Ab1 was produced and is identified by an appended “.H”, i.e., Ab1.H, and it also bound PACAP38 with high affinity.

human PACAP38 [9] = target: T3, human PACAP38; assay: inhibition of 100 nM biotin-PACAP38 binding to PC-12 cells, TRF
Experimental: as §2, §3, §4

| Binder | Kd (human VIP) [µM] | koff (human VIP) [s⁻¹] | Kd (human PACAP27 [1]) [nM] | koff (human PACAP27 [1]) [s⁻¹] | kon (human PACAP27 [1]) [M⁻¹ s⁻¹] | Kd (human PACAP38 [2]) [nM] | koff (human PACAP38 [2]) [s⁻¹] | kon (human PACAP38 [2]) [M⁻¹ s⁻¹] | IC50 (human PACAP38 [3]) [µM] | IC50, 0.1 nM PACAP27-induced PAC1-R mediated cAMP increase (human PACAP27 [4]) [nM] | IC50, 0.1 nM PACAP38-induced PAC1-R mediated cAMP increase (human PACAP38 [5]) [nM] | IC50, 5 nM PACAP38-induced human VPAC1-R mediated cAMP increase (human PACAP38 [6]) [µM] | IC50, 1 nM PACAP38-induced human VPAC2-R mediated cAMP increase (human PACAP38 [7]) [µM] | kon (human VIP) [M⁻¹ s⁻¹] | EC50 (human PACAP38 [8]) [µM] | IC50 (human PACAP38 [9]) [µM] |
| --- | --- | --- | --- | --- | --- | --- | --- | --- | --- | --- | --- | --- | --- | --- | --- | --- |
| anti-PACAP antibody Ab3.H (antibody, human IgG1, kappa, N297A, V domains shown, humanized form of Ab3, full length) VH: EVQLVESGGGLVQPGGSLRLSCAASGFSFSSSDYMCWVRQAPGKGLEWIGCIDAGSSGDTYFASSAKGRFTISRDNSKNTVYLQMNSLRAEDTAVYFCARHLYGSITFAFGLWGQGTLVTVSS VL: AAQMTQSPSTLSASVGDRVTITCQASQSIGSDLAWYQQKPGKAPKLLIYDASTLASGVPSRFSGSGSGTEFTLTISSLQPDDFATYYCQGTYYSSGWYTAFGGGTKVEIKR | 100000 | 0.1 | 1 | 0.00034 | 330000 | 0.29 | 0.00014 | 490000 | 0.0883 | 1.21 | 1.32 | 0.00733 | 0.0642 |  |  |  |
| anti-PACAP antibody Ab8 (antibody, human IgG1, kappa, N297A, V domains shown, full-length rabbit/human chimeric antibody) VH: LEQSGGGAEGGLVKPGGSLELCCKASGFSLTTSHWMCWVRQAPGKGLNWIGCISAGSGDADYATWVDAQFTLSRDIDQNTGCLQLNSLTPADTAMYYCTINFELWGQGTLVTVSS VL: AQVLTQTPSSVSAAVGGTVTINCQSSPSVYSSYLSWFQQKPGQPPKFLIYEASKLASGVPSRFSGSGSGTQFTLTISGVQCSDAATYYCLGAYDCGRTDCHAFGGGTEVVVKR | 0.21 | 0.1 | 0.14 | 6e-05 | 440000 | ≤ 0.029 | ≤ 1e-05 | 350000 |  | 0.049 | 0.0393 | 0.000481 | 0.000147 | 480000 | 0.00048 | 0.0203 |
| anti-PACAP antibody Ab1 (antibody, human IgG1, kappa, N297A, V domains shown, full-length rabbit/human chimeric antibody) VH: QSVEESGGRLVTPGTPLTLTCTVSGFSLSSAVMNWVRQAPGKGLEWIGSIVASGTTYYASWANGRFTISKTSSTTMDLKMTSPTTEDTATYFCARGGGEFFIWGPGTLVTVSS VL: DPVMTQTPSSTSAAVGGTVTISCQSSESVYSNYLSWYQQKPGQPPNFLIYQASNLASGVPSRFKGSGSGTQFTLTITDLECDDAATYYCAGGYSENIVGFGGGTEVVVKR | 0.099 | 0.025 | ≤ 0.1 | ≤ 1e-05 | 1e+06 | ≤ 0.027 | ≤ 1e-05 | 370000 |  | 0.0729 | 0.293 | 0.000665 | 0.000147 | 250000 | 0.00043 | 0.0127 |
| anti-PACAP antibody Ab2 (antibody, human IgG1, kappa, N297A, V domains shown, full-length rabbit/human chimeric antibody) VH: QSVEESGGRLVTPGTPLTLTCTVSGFSLSGAAMNWVRQAPGKGLEWIGVIGNSGSTYYASWAKGRFTISKTSSTTVDLKMTSPTTEDTATYFCARGGGEFFIWGQGTLVTVSS VL: AQVLTQTPSPVSAAVGGTVTINCQSSESVYKNNYLSWYQQKPGQPPKFLIYQASNLADGVPSRFKGSGSGTQFTLTISDLECDDAATYYCAGGYSTYMSGFGGGTEVVVKR | 0.14 | 0.084 | ≤ 0.012 | ≤ 1e-05 | 830000 | ≤ 0.044 | ≤ 1e-05 | 230000 |  | 0.063 | 0.237 | 0.000688 | 0.000174 | 580000 | 0.00035 | 0.0266 |
| anti-PACAP antibody Ab4.H (antibody, human IgG1, kappa, N297A, V domains shown, humanized form of Ab4, full length) VH: EVQLVESGGGLVQPGGSLRLSCAASGFSLSSYDMSWVRQAPGKGLEWIGIINTNDDTWYASWVKGRFTISRDNSKNTLYLQMNSLRAEDTAVYYCARISDAYVFDYAYYFTLWGQGTLVTVSS VL: DIQMTQSPSTLSASVGDRVTITCLASQNIYNSLAWYQQKPGKAPKLLIYRASTLASGVPSRFSGSGSGTEFTLTISSLQPDDFATYYCQQGAGADNIGNPFGGGTKVEIKR | 0.072 | 0.024 | ≤ 0.031 | ≤ 1e-05 | 330000 | 0.1 | 3.2e-05 | 310000 | 0.098 | 0.294 | 0.307 | 0.0026 | 0.00449 | 330000 |  |  |
| anti-PACAP antibody Ab6 (antibody, human IgG1, kappa, N297A, V domains shown, full-length rabbit/human chimeric antibody) VH: LEQSGGGAEGGLVKPGGSLELCCKASGFSLSSTYWMCWVRQAPGKGLEWIGCIYTGSGSTDYASWVNGQFTLSRDIDQSTGCLQLNSLTVADTAMYYCTKNFDLWGPGTLVTVSS VL: AQVLTQTPSSVSAAVGGTVTINCQSSPSVYSNNYLSWFQQKPGQPPKGLIADASTLASGVPSRFKGSGSGTQFTLTISGVQCDDAAAYYCLGYYDCGSTDCHAFGGGTEVVVKR | 0.044 | 0.00014 | 0.21 | 8.2e-05 | 390000 | 0.14 | 4.1e-05 | 300000 |  | 0.38 | 0.0512 | 0.000797 | 0.000217 | 3100 | 0.0005 | 0.0078 |
| anti-PACAP antibody Ab9 (antibody, human IgG1, kappa, N297A, V domains shown, full-length rabbit/human chimeric antibody) VH: EQSGGGAEGGLVKPGGSLKLSCKASGFTISRDYWICWVRQAPGKGLEWIGCISAGGGSTDYANWVNGRFTLSRDIDQSTGCLQLNSLTDADTAMYYCAGNLEIWGQGTLVTVSS VL: AQVLTQTPSSVSAAVGGTVTINCQSSPSIYSGAFLSWFQQKPGQPPKFLIYEASKLASGVPSRFSGSGSGTQFTLTISDVQCDDAATYYCLGFYDCSSVDCHAFGGGTEVVVKR | 100000 | 0.1 | 0.34 | 0.00032 | 960000 | 0.14 | 0.00011 | 820000 |  | 2.84 | 0.987 | 0.00406 | 0.00696 |  | 0.00023 | 0.0333 |
